We go through one substance from patent US6103692.

Where only a bound is given, the exact number is not on record here.

In the experiment the target is endogenous Ras (COS cells).

For the substance “Myc-Raf (84-87A) (from UniProt P04049) (enzyme)”, the EGF or PMA-stimulated activation of Raf kinase in COS cells is greater than 85%.
